Data from paper PMC3273809.
Read-outs that look alike come from different tables or passages of the source.

Key:
Assay in all cases: SPR
TrfA G254D/S267L = molecular target: T1, TrfA G254D/S267L (plasmid RK2, UniProt P07676 98-382, G254D;S267L)
T1 sequence: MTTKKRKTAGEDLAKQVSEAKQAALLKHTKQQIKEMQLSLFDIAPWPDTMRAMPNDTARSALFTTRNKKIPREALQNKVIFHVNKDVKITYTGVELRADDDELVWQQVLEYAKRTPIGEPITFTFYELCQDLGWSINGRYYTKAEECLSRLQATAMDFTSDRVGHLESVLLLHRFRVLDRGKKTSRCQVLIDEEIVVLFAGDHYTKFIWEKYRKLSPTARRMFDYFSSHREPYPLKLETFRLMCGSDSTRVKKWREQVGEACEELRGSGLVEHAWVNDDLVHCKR

ClpA = molecular target: T2, ClpA (Escherichia coli, UniProt P0ABH9 1-758)
T2 sequence: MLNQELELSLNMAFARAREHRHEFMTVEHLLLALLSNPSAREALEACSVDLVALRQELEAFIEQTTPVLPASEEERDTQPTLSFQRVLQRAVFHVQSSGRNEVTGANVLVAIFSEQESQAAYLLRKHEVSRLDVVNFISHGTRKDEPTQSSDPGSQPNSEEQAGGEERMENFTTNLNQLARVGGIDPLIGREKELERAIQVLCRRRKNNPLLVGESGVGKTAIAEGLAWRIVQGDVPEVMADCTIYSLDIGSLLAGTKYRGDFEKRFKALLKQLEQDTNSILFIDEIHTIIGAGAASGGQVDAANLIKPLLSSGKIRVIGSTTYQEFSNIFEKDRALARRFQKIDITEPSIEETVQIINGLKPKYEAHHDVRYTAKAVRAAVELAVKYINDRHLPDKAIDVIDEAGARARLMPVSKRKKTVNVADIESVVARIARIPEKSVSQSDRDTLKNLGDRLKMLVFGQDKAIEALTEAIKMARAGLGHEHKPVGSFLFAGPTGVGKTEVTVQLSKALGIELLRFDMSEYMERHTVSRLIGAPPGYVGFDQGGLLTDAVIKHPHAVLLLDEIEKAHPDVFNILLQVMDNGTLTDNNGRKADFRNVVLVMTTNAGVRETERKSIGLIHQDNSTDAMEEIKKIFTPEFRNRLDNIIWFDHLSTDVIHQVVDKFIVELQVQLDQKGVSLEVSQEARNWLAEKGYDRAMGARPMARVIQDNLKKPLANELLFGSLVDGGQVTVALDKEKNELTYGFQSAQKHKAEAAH

Lon [1] = molecular target: T3, Lon (Escherichia coli, UniProt P0A9M0 1-784)
TrfA wt (His6-TrfA-33) = molecular target: T4, TrfA wt (His6-TrfA-33) (plasmid RK2, UniProt P07676 98-382)
T4 sequence: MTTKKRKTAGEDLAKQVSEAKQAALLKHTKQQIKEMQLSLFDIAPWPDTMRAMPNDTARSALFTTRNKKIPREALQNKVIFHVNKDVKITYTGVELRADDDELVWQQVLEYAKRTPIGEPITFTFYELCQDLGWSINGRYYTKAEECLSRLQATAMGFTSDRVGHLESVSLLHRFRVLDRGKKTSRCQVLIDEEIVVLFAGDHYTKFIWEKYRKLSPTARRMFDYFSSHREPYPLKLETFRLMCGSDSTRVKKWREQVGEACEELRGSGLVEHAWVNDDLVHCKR

Lon [2] = molecular target: T3, Lon; remark: listed apart in the source
[3] = molecular target: Lon;TrfA P151S/G254D/S267L (Escherichia coli;plasmid RK2, UniProt P0A9M0;P07676 1-784;98-382, |P151S;G254D;S267L)

Measured: binding result

B1: frag1 (five RK2 oriV iterons, 129 bp) (dsDNA)
DNA 1: CCTGCGGTATTGACACTTGAGGGGCGCGACTACTGACAGATGAGGGGCGCGATCCTTGACACTTGAGGGGCAGAGTGATGACAGATGAGGGGCGCACCTATTGACATTTGAGGGGCTGTCCACAGGCAG
DNA 2: CTGCCTGTGGACAGCCCCTCAAATGTCAATAGGTGCGCCCCTCATCTGTCATCACTCTGCCCCTCAAGTGTCAAGGATCGCGCCCCTCATCTGTCAGTAGTCGCGCCCCTCAAGTGTCAATACCGCAGG
binds: TrfA G254D/S267L | ClpA | Lon [1] | TrfA wt (His6-TrfA-33)

B2: frag2 (pUC19 fragment, 129 bp) (dsDNA)
DNA 1: AGCTCACAATTCCACACAACATACGAGCCGGAAGCATAAAGTGTAAAGCCTGGGGTGCCTAATGAGTGAGCTAACTCACATTAATTGCGTTGCGCTCACTGCCCGCTTTCCAGTCGGGAAACCTGTCGT
DNA 2: ACGACAGGTTTCCCGACTGGAAAGCGGGCAGTGAGCGCAACGCAATTAATGTGAGTTAGCTCACTCATTAGGCACCCCAGGCTTTACACTTTATGCTTCCGGCTCGTATGTTGTGTGGAATTGTGAGCT
binds: Lon [2] | ClpA | [3]
